From doi:10.1101/2024.09.07.611787, “Molecular glues that inhibit deubiquitylase activity and inflammatory signalling” (bioRxiv, 2024)

How the values were obtained:
[1] = molecular target: His-tagged BRISC labelled with RED-tris-NTA dye (human) (UniProt P46736); assay: spectral shift (Dianthus); 12.5 nM RED-tris-NTA labelled His-BRISC, SHMT2(A285T) titrated 46 uM to 1.4 nM, no compound (1% DMSO); 25 mM HEPES pH 7.5, 150 mM NaCl, 1 mM DTT, 0.005% Tween-20, 25 °C; one-site total binding
[2] = molecular target: His-tagged BRISC labelled with RED-tris-NTA dye (human) (UniProt P46736); assay: spectral shift (Dianthus); as a16, labelled His-BRISC first incubated with 100 uM JMS-175-2 (1% DMSO) for 15 min at RT
[3] = molecular target: His-tagged BRISC labelled with RED-tris-NTA dye (human) (UniProt P46736); assay: spectral shift (Dianthus); as a16, labelled His-BRISC first incubated with 100 uM FX-171-C (1% DMSO) for 15 min at RT

Kd [1]: 400 nM
KD after incubation with JMS-175-2 [2]: 700 nM
KD after incubation with FX-171-C [3]: 3600 nM
Substance: SHMT2ΔN(A285T) (residues 18–504) (from UniProt P34897 18-504) (enzyme)
